Experimental data as given in patent US9238802B2, “E. coli transformant, method for producing flavin-bound glucose dehydrogenase using the same, and mutant flavin-bound glucose dehydrogenases” (KIKKOMAN CORPORATION, priority 2010, dated 2016).

Tests used:
Format in all cases: biochemical
[1] = GOD activity (4-AA/TOOS/POD assay); details: 37° C., 131 mM D-glucose
Method: GDH activity was measured as described in Example 1. GOD activity was measured using 4-aminoantipyrine (4-AA) and N-ethyl-N-(2-hydroxy-3-sulfopropyl)-3-methylaniline (TOOS) as described below. To initiate a reaction, 30.0 mL of 100 mM phosphate buffer (pH 7.0), 6.0 mL of 833 mM D-glucose solution, 0.3 mL of 25 mM 4-AA solution, 0.3 mL of 40 mM TOOS solution, and 0.3 mL of 500 U/mL POD solution were mixed, of which 3.0 mL was transferred into a test tube and incubated at 37° C. for five minutes, and 0.1 mL of an enzyme sample solution was added. An increase in the absorbance at 555 nm (ΔA555) per minute due to the progress of the enzyme reaction was determined to calculate GOD activity according to the following formula.
The formula indicates 3.1 as the liquid volume (mL) of reaction reagent plus enzyme reagent, 32.8 as millimolar extinction coefficient (cm^2/μmol) under the activity assay conditions, 0.5 as the number of quinoneimine dye molecules generated when one H2O2 molecule is reduced, 0.1 as the liquid volume (mL) of an enzyme solution, 1.0 as the optical path length (cm) of a cell, ΔA555blank as an increase in the absorbance at 555 nm per minute when 10 mM acetate buffer, instead of an enzyme sample solution, is added to initiate a reaction, and df as a dilution factor.

[2] = GDH activity of purified enzymes (DCIP/PMS assay); details: purified enzyme
Method: Specifically, the activities of the flavin-bound GDHs are measured according to the following procedures. To initiate a reaction, 1.79 mL of 100 mM phosphate buffer (pH7.0), 0.08 mL of 1.25 M D-glucose solution, and 0.01 mL of 20 mM DCIP solution are mixed, followed by incubation at 37° C. for 5 minutes, and, subsequently, 0.02 mL of 20 mM PMS solution and 0.1 mL of an enzyme sample solution are added. Absorbance is measured at the initiation of the reaction and over time to determine a decrease in the absorbance at 600 nm (ΔA600) per minute due to the progress of the enzyme reaction and calculate flavin-bound GDH activity according to the following formula. […]
Solutions were mixed according to the following procedures, followed by absorbance measurement to examine GDH activity in the crude enzyme solution. […] A decrease in the absorbance at 600 nm (ΔA600) per minute due to the progress of the enzyme reaction after the initiation of the reaction was determined to calculate GDH activity according to the following formula. […]
GDH activity was measured as described in Example 1. GOD activity was measured using 4-aminoantipyrine (4-AA) and N-ethyl-N-(2-hydroxy-3-sulfopropyl)-3-methylaniline (TOOS) as described below. […] An increase in the absorbance at 555 nm (ΔA555) per minute due to the progress of the enzyme reaction was determined to calculate GOD activity according to the following formula.

[3] = Substrate specificity of GDHs produced by the E. coli transformant; details: according to Examples 3 and 5

B1: GOD derived from Aspergillus niger: commercial glucose oxidase derived from Aspergillus niger (GOD, biozyme laboratories) (protein, UniProt P13006 17-605, looked up)
Glucose oxidase: LPHYIRSNGIEASLLTDPKDVSGRTVDYIIAGGGLTGLTTAARLTENPNISVLVIESGSYESDRGPIIEDLNAYGDIFGSSVDHAYETVELATNNQTALIRSGNGLGGSTLVNGGTWTRPHKAQVDSWETVFGNEGWNWDNVAAYSLQAERARAPNAKQIAAGHYFNASCHGVNGTVHAGPRDTGDDYSPIVKALMSAVEDRGVPTKKDFGCGDPHGVSMFPNTLHEDQVRSDAAREWLLPNYQRPNLQVLTGQYVGKVLLSQNGTTPRAVGVEFGTHKGNTHNVYAKHEVLLAAGSAVSPTILEYSGIGMKSILEPLGIDTVVDLPVGLNLQDQTTATVRSRITSAGAGQGQAAWFATFNETFGDYSEKAHELLNTKLEQWAEEAVARGGFHNTTALLIQYENYRDWIVNHNVAYSELFLDTAGVASFDVWDLLPFTRGYVHILDKDPYLHHFAYDPQYFLNELDLLGQAAATQLARNISNSGAMQTYFAGETIPGDNLAYDADLSAWTEYIPYHFRPNYHGVGTCSMMPKEMGGVVDNAARVYGVQGLRVIDGSIPPTQMSSHVMTVFYAMALKISDAILEDYASMQ
B1 showed a GOD activity [1] of 9.38 U/mL and a GDH activity [2] of 3.50 U/mL.

B2: NS3: GDH with a deletion to the 27th Ser and Met added to the 28st Ser (SEQ ID NO: 30) (protein)
chain: MSTDTYDYVIVGGGVAGLALASRISENKDVTVAVLESGPNANDRFVVYAPGMYGQAVGTDLCPLIPTTPQENMGNRSLTIATGRLLGGGSAINGLVWTRGGLKDYDAWEELGNPGWNGANLFKYFKKVENFTPPTPAQIEYGATYQKSAHGKKGPIDVSFTNYEFSQSASWNASLETLDFTALPDILNGTLAGYSTTPNILDPETVQRVDSYTGYIAPYTSRNNLNVLANHTVSRIQFAPKNGSEPLKATGVEWYPTGNKNQKQIIKARYEVIISSGAIGSPKLLEISGIGNKDIVSAAGVESLIDLPGVGSNMQDHVHAITVSTTNITGYTTNSVFVNETLAQEQREEYEANKTGIWATTPNNLGYPTPEQLFNGTEFVSGKEFADKIRNSTDEWANYYASTNASNVELLKKQYAIVASRYEENYLSPIEINFTPGYEGSGNVDLQNNKYQTVNHVLIAPLSRGYTHINSSDVEDHSVINPQYYSHPMDIDVHIASTKLAREIITASPGLGDINSGEIEPGMNITSEDDLRSWLSNNVRSDWHPVGTCAMLPKELGGVVSPALMVYGTSNLRVVDASIMPLEVSSHLMQPTYGIAEKAADIIKNFYKTQHKNQN
modifications: NS3
For B2, the “substrate specificity (in words)” value [3] was “almost comparable with that of the purified GDH obtained in Example 2”.

B3: NS1: GDH with a deletion to the 20th Ala and Met added to the 21st Gln (SEQ ID NO: 23) (protein)
chain: MQQDTNSSSTDTYDYVIVGGGVAGLALASRISENKDVTVAVLESGPNANDRFVVYAPGMYGQAVGTDLCPLIPTTPQENMGNRSLTIATGRLLGGGSAINGLVWTRGGLKDYDAWEELGNPGWNGANLFKYFKKVENFTPPTPAQIEYGATYQKSAHGKKGPIDVSFTNYEFSQSASWNASLETLDFTALPDILNGTLAGYSTTPNILDPETVQRVDSYTGYIAPYTSRNNLNVLANHTVSRIQFAPKNGSEPLKATGVEWYPTGNKNQKQIIKARYEVIISSGAIGSPKLLEISGIGNKDIVSAAGVESLIDLPGVGSNMQDHVHAITVSTTNITGYTTNSVFVNETLAQEQREEYEANKTGIWATTPNNLGYPTPEQLFNGTEFVSGKEFADKIRNSTDEWANYYASTNASNVELLKKQYAIVASRYEENYLSPIEINFTPGYEGSGNVDLQNNKYQTVNHVLIAPLSRGYTHINSSDVEDHSVINPQYYSHPMDIDVHIASTKLAREIITASPGLGDINSGEIEPGMNITSEDDLRSWLSNNVRSDWHPVGTCAMLPKELGGVVSPALMVYGTSNLRVVDASIMPLEVSSHLMQPTYGIAEKAADIIKNFYKTQHKNQN
modifications: NS1
For B3, the “substrate specificity (in words)” value [3] was “almost comparable with that of the purified GDH obtained in Example 2”.

B4: NS2: GDH with a deletion to the 20th Ala and the 21st Gln substituted by Met (SEQ ID NO: 25) (protein)
chain: MQDTNSSSTDTYDYVIVGGGVAGLALASRISENKDVTVAVLESGPNANDRFVVYAPGMYGQAVGTDLCPLIPTTPQENMGNRSLTIATGRLLGGGSAINGLVWTRGGLKDYDAWEELGNPGWNGANLFKYFKKVENFTPPTPAQIEYGATYQKSAHGKKGPIDVSFTNYEFSQSASWNASLETLDFTALPDILNGTLAGYSTTPNILDPETVQRVDSYTGYIAPYTSRNNLNVLANHTVSRIQFAPKNGSEPLKATGVEWYPTGNKNQKQIIKARYEVIISSGAIGSPKLLEISGIGNKDIVSAAGVESLIDLPGVGSNMQDHVHAITVSTTNITGYTTNSVFVNETLAQEQREEYEANKTGIWATTPNNLGYPTPEQLFNGTEFVSGKEFADKIRNSTDEWANYYASTNASNVELLKKQYAIVASRYEENYLSPIEINFTPGYEGSGNVDLQNNKYQTVNHVLIAPLSRGYTHINSSDVEDHSVINPQYYSHPMDIDVHIASTKLAREIITASPGLGDINSGEIEPGMNITSEDDLRSWLSNNVRSDWHPVGTCAMLPKELGGVVSPALMVYGTSNLRVVDASIMPLEVSSHLMQPTYGIAEKAADIIKNFYKTQHKNQN
modifications: NS2
With B4 the “substrate specificity (in words)” value [3] was “almost comparable with that of the purified GDH obtained in Example 2”.

B5: NS4: GDH with a deletion to the 27th Ser and the 28st Ser substituted by Met (SEQ ID NO: 32) (protein)
chain: MTDTYDYVIVGGGVAGLALASRISENKDVTVAVLESGPNANDRFVVYAPGMYGQAVGTDLCPLIPTTPQENMGNRSLTIATGRLLGGGSAINGLVWTRGGLKDYDAWEELGNPGWNGANLFKYFKKVENFTPPTPAQIEYGATYQKSAHGKKGPIDVSFTNYEFSQSASWNASLETLDFTALPDILNGTLAGYSTTPNILDPETVQRVDSYTGYIAPYTSRNNLNVLANHTVSRIQFAPKNGSEPLKATGVEWYPTGNKNQKQIIKARYEVIISSGAIGSPKLLEISGIGNKDIVSAAGVESLIDLPGVGSNMQDHVHAITVSTTNITGYTTNSVFVNETLAQEQREEYEANKTGIWATTPNNLGYPTPEQLFNGTEFVSGKEFADKIRNSTDEWANYYASTNASNVELLKKQYAIVASRYEENYLSPIEINFTPGYEGSGNVDLQNNKYQTVNHVLIAPLSRGYTHINSSDVEDHSVINPQYYSHPMDIDVHIASTKLAREIITASPGLGDINSGEIEPGMNITSEDDLRSWLSNNVRSDWHPVGTCAMLPKELGGVVSPALMVYGTSNLRVVDASIMPLEVSSHLMQPTYGIAEKAADIIKNFYKTQHKNQN
modifications: NS4
In the case of B5, the “substrate specificity (in words)” value [3] is reported as “almost comparable with that of the purified GDH obtained in Example 2”.
